The data set deals with MBP-CIRTS-1 (ORF5-TBP6.7-SMG6 Pin nuclease fusion) (synthetic fusion (Grapevine virus A ORF5; Homo sapiens U1A-derived TBP6.7; Homo sapiens SMG6)). The data set can be described thus: FP filter. The conditions noted are these: apparent; text states ~50-fold weaker than on-target.

As to “non-targeting TAR-hairpin gRNA ; model RNA substrate (R1)”, the Kd is 500 nM.
